# Results: patent US20190160152A1 (OPKO BIOLOGICS LTD., priority 2016, published 2019)
# “Also recorded” adds a separate entry of the source. Read-outs that look alike come from different tables or passages of the source.
# Experiments:
# [1] = IP glucose tolerance test (IPGTT model); type: in vivo, C57BL/6 male mice; settings: for AUC (0-180) / AUC (−60-180): blood glucose, 100 nmol/kg peptide content IP 15 min prior to glucose 1.5 gr/kg IP; for % AUC from control, AUC (0-180) / % AUC from control, AUC (−60-180): control PEG-SH, 100 nmol/kg peptide content IP
# [2] = ob/ob mouse model Study 1: PEG30-S-MAL-FMS-OXM variants at 2000 nmol/kg; type: in vivo, male ob/ob mice; settings: 2000 nmol/kg sc; for final reduction of body weight (on day 18) compared to vehicle (PEG-SH) group: days 1, 5, 9, 13 and 16
# Protocol: Terminal samples on day 19 were analyzed for cholesterol.
# [3] = ob/ob mouse model Study 3: MOD-6031 vs PEG30-Fmoc-OXM vs PEG30-EMCS-OXM; type: in vivo, male ob/ob mice; settings: for terminal plasma lipidic profiles and fructosamine (in words) / glucose profile, Day 30 OGTT (in words) / glucose tolerance, day 2 OGTT (in words): 6000 nmol/kg; for terminal plasma lipidic profiles and fructosamine (in words): day 33; for glucose profile, Day 30 OGTT (in words) / glucose tolerance, day 2 OGTT (in words): glucose 2 g/kg po
# Protocol: Forty-two male ob/ob mice (7 weeks of age, Charles River, Italy) were acclimatized to the facility (10 days) followed by handling protocol whereby animals were handled as if to be dosed but were actually not weighed or dosed. Subsequently, animals underwent baseline period for 1 week in which each animal have been dosed twice by the subcutaneous route with PEG30-SH in volume of 20 ml/kg. Body weight, food and water intake were recorded daily, and samples were taken for non-fasting and fasting glucose measurements and non-fasting and fasting insulin measurements. Animals were subsequently allocated into three treatment, control and pair-fed groups (group A, N=10, groups B-E, N=8) based on plasma glucose, body weight and daily food and water intake. […] It was given the daily food ration equal to that eaten by its paired counterpart in group B the previous day. As such, animals in Group E will be one day out of phase with Group B in all study procedures and measurements. During the study, animals were dosed every four days (days: 1, 5, 9, 13, 17, 21, 25 and 29) as describes in table 3. […] Several procedures and sampling have been performed: non-fasting glucose on days 1, 6, 14, 22 and 29, fasting glucose on days 10, 18 and 26. On days 2 and 30 fasting glucose samples have been taken as part of an OGTT procedure, in which insulin was measured in parallel to glucose. Terminal samples on day 33 were analyzed for cholesterol, triglycerides and fructosamine.
# [4] = target: T1, dipeptidyl peptidase IV (DPPIV) (Homo sapiens, UniProt P27487)
# [5] = ob/ob mouse model Study 2: chronic MOD-6031, OXM, liraglutide pharmacology; type: in vivo, male ob/ob mice
# Protocol: Body weight, food and water intake were recorded daily. […] Body weight, food and water intake were measured daily.
# [6] = Hydrolysis rate of MOD-6031 in phosphate buffer at different pH; type: physicochemical
# [7] = Ex-vivo hydrolysis rate of MOD-6031 in rat plasma; type: in vitro ADME
# Protocol: (§1) After evaporation to dryness and reconstitution, the extracts were analysed by LC-MS/MS. […] Incubation at temperatures of 35° C., 37° C. and 41° C. was examined in rat plasma. […] For human plasma, both pooled and individual samples were measured using plasma derived from male and female subjects. […] The hydrolysis was stopped at the designated time point by freezing the sample at −70° C. […] For each condition, three independent samples were prepared. Samples were incubated at a given temperature of either 35° C., 37° C. or 41° C. All samples were stored at −70° C. prior to analysis. […] Temperature, wherein hydrolysis was tested at temperatures of 35° C., 37° C., and 41° C.; and • c. Plasma source, wherein hydrolysis was tested in plasma samples obtained from rat, cynomolgus monkeys and human. For human plasma, both pooled and individual samples were used, and hydrolysis rates were measured separately for plasma from males and females. […] At designated time points, samples were taken for LC-MS/MS analysis.
# [8] = Ex-vivo hydrolysis rate of MOD-6031 in cynomolgus monkey plasma; type: in vitro ADME
# Protocol: as §1
# [9] = Ex-vivo hydrolysis rate of MOD-6031 in human plasma; type: in vitro ADME
# Protocol: as §1
# [10] = Viscosity analysis (Brookfield rheometer); type: physicochemical
# Protocol: Viscosity was measured with a Brookfield rheometer (DV-III Ultra). For each formulation, viscosity was obtained from the average of five shear rate (Sec^−1) readouts (15.0, 30.0, 45.0, 60.0 and 75.0) at a controlled temperature of 25° C. Processing of the data was done using Rheocalc® software (Brookfield).
# Conditions included concentration, buffer type, pH, and NaCl. Buffers were formed by interaction of base part of the buffer and the trifluoro acetic acid (TFA) that co-eluted with the […] (DS). […]
# [11] = mouse, in vivo, sc
# [12] = target: T1, dipeptidyl peptidase IV (DPPIV); assay: DPPIV digestion assay by RP-HPLC; settings: pH = 6
# [13] = Syringability analysis (Instron, glide force); type: physicochemical; settings: 25 Ga Needle; 9 in/min (16 sec)
# Protocol: Syringeability was tested using an Instron instrument, model 5942. […] […] For each needle size, two speed rates were measured: 4.8 in/min and 9 in/min, which correspond to injection speeds of 1 ml per 30 sec and 16 sec, respectively.
# In one case, acceptance criteria for syringability was set at <10 N (glide force). The results of syringability for two different formulations of an acetate based buffer and using three different gauge needles is presented in Table 29 below.
# [14] = 6000 nmol/kg sc every four days
# [15] = Monkey (lot# CYN128421) plasma 37° C.
# [16] = Monkey (lot# CYN128423) plasma 37° C.
# [17] = Human female (pool) plasma 37° C.
# [18] = Human male (pool) plasma 37° C.
# T1 sequence (P27487 whole entry, species assumed): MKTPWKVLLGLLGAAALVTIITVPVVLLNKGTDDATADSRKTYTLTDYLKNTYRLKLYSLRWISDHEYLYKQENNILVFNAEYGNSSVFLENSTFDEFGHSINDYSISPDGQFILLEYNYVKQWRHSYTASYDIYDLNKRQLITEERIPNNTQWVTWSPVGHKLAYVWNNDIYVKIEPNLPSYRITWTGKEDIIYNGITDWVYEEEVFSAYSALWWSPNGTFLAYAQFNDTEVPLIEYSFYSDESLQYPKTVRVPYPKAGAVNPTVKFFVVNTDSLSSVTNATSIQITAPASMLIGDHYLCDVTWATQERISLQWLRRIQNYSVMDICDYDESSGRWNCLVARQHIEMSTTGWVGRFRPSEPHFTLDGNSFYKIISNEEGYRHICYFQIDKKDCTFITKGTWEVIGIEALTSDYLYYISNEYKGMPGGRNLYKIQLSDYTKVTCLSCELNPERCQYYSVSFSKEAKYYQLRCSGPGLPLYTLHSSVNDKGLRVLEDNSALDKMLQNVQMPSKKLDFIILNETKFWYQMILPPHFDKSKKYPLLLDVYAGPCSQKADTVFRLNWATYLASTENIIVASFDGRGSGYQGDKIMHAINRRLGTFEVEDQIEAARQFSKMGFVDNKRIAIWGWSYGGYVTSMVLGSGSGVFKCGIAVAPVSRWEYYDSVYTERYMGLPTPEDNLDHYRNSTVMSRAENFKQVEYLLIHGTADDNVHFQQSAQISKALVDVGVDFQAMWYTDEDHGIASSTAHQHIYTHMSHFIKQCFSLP
substance,measurement,setting,value
"MOD-6030: heterogeneous mixture of PEG-S-MAL-FMS-OXM conjugate composed of three variants (N-terminal, Lys12 and Lys30) (HSQGTFTSDYSKYLDSRRAQDFVQWLMNTKRNRNNIA; Oxyntomodulin PEG30-S-MAL-FMS, mixed N-term/Lys12/Lys30; UniProt P01275 53-89, looked up)",AUC (0-180),[1],13541
same,AUC (−60-180),[1],18200
same,"% AUC from control, AUC (0-180)",[1],60.1%
same,"% AUC from control, AUC (−60-180)",[1],67.8%
same,final reduction of body weight (on day 18) compared to vehicle (PEG-SH) group,[2],4.7%
PEG30-EMCS-OXM: non-reversible form where N-(epsilon-Maleimidocaproyloxy)succinimide (EMCS) replaces Fmoc as linker,Final reduction changes in body weight (on day 33) compared to control (PEG-SH),[3]; [14],2.4%
same,degradation by DPPIV (in words),[4],no degradation of the conjugates was observed
MOD-6031,glucose tolerance (in words),"[1]; IPGTT, compared to vehicle PEG-SH",slightly less potent
same,AUC (0-180),[1],15781
same,AUC (−60-180),[1],19891
same,"% AUC from control, AUC (0-180)",[1],70.1%
same,"% AUC from control, AUC (−60-180)",[1],74.1%
same,"ability to reduce weight, inhibit food intake and improve glycemic control (in words)",[2],superior efficacies
same,non-fasting glucose (in words),[2],improvement of non-fasting glucose
same,final reduction of body weight (on day 18) compared to vehicle (PEG-SH) group,[2],4.9%
same,body weight reduction at the conclusion of the study (day 33),[5]; 1000 nmol/kg sc twice a week,5.2%
same,body weight reduction at the conclusion of the study (day 33),[5]; 3000 nmol/kg sc twice a week,12.3%
same,body weight and food consumption (in words),[5]; 3000 nmoles/kg twice a week,significantly reduced
same,body weight reduction at the conclusion of the study (day 33),[5]; 6000 nmol/kg sc twice a week,28.3%
same,food intake and body weight (in words),[5]; 6000 nmol/kg twice a week,significantly reduced
same,"glucose tolerance, OGTT days 2 and 30 (in words)","[5]; 1000, 3000 and 6000 nmoles/kg, glucose 2 g/kg po",significantly and dose-dependently improved
same,terminal cholesterol (in words),[5]; day 33,dose-dependently reduced
same,terminal glucose (in words),"[5]; study termination, day 33",dose-dependently reduced
same,terminal plasma insulin (in words),"[5]; study termination, day 33",markedly reduced
same,Final reduction changes in body weight (on day 33) compared to control (PEG-SH),[3]; [14],25.4%
same,fasting glucose (in words),[3]; [14],significant improvement
same,non-fasting glucose (in words),[3]; [14],significant improvement
same,terminal plasma lipidic profiles and fructosamine (in words),[3],significant reduction
same,"glucose profile, Day 30 OGTT (in words)",[3],significant improved glucose profile
same,"glucose tolerance, day 2 OGTT (in words)",[3],significantly improved glucose tolerance
same,Cl/F_obs,[6]; Phosphate pH = 6.8,0.061 (mg)/(μg/ml)/h
same,MRT0-∞,[6]; Phosphate pH = 6.8,47.4 h
same,Cl/F_obs,[6]; Phosphate pH = 7.4,0.133 (mg)/(μg/ml)/h
same,MRT0-∞,[6]; Phosphate pH = 7.4,20.3 h
same,Cl/F_obs,[6]; Phosphate pH = 7.8,0.227 (mg)/(μg/ml)/h
same,MRT0-∞,[6]; Phosphate pH = 7.8,10.7 h
same,Cl/F_obs,"[7]; Table 10, Rat plasma 35° C.",0.120 (mg)/(μg/ml)/h
same,MRT0-∞,"[7]; Table 10, Rat plasma 35° C.",14.7 h
same,Cl/F_obs,"[7]; Table 10, Rat plasma 37° C.",0.129 (mg)/(μg/ml)/h
same,MRT0-∞,"[7]; Table 10, Rat plasma 37° C.",14.7 h
same,Cl/F_obs,"[7]; Table 10, Rat plasma 41° C.",0.179 (mg)/(μg/ml)/h
same,MRT0-∞,"[7]; Table 10, Rat plasma 41° C.",9.6 h
same,Cl/F_obs,"[7]; Table 11, Rat plasma 37° C.",0.056 (mg)/(μg/ml)/h
same,MRT0-∞,"[7]; Table 11, Rat plasma 37° C.",13 h
same,"hydrolysis rate, effect of temperature (in words)","[7]; rat plasma, 41° C. compared with 35° C. or 37° C.",incubation at 41 °C resulted in a higher hydrolysis rate
same,Cl/F_obs,[8]; [15],0.172 (mg)/(μg/ml)/h
same,MRT0-∞,[8]; [15],5 h
same,Cl/F_obs,[8]; [16],0.043 (mg)/(μg/ml)/h
same,MRT0-∞,[8]; [16],15 h
same,Cl/F_obs,[9]; [17],0.102 (mg)/(μg/ml)/h
same,MRT0-∞,[9]; [17],9 h
same,Cl/F_obs,[9]; Human female A plasma 37° C.,0.125 (mg)/(μg/ml)/h
same,MRT0-∞,[9]; Human female A plasma 37° C.,8 h
same,Cl/F_obs,[9]; Human female B plasma 37° C.,0.136 (mg)/(μg/ml)/h
same,MRT0-∞,[9]; Human female B plasma 37° C.,9 h
same,Cl/F_obs,[9]; Human female C plasma 37° C.,0.143 (mg)/(μg/ml)/h
same,MRT0-∞,[9]; Human female C plasma 37° C.,7 h
same,Cl/F_obs,[9]; [18],0.064 (mg)/(μg/ml)/h
same,MRT0-∞,[9]; [18],14 h
same,Cl/F_obs,[9]; Human male A plasma 37° C.,0.133 (mg)/(μg/ml)/h
same,MRT0-∞,[9]; Human male A plasma 37° C.,8 h
same,Cl/F_obs,[9]; Human male B plasma 37° C.,0.148 (mg)/(μg/ml)/h
same,MRT0-∞,[9]; Human male B plasma 37° C.,7 h
same,Cl/F_obs,[9]; Human male C plasma 37° C.,0.146 (mg)/(μg/ml)/h
same,MRT0-∞,[9]; Human male C plasma 37° C.,7 h
same,hydrolysis rate in different plasma types (in words),"[9]; rat, cynomolgus monkey and human plasma, 37° C.",comparable hydrolysis rate in most of the plasma samples; also recorded: very similar
same,Viscosity,"[10]; 100 mM Acetate, 100 mM Sucrose, pH 4.7, 66 mg/ml",20.41 cp
same,Viscosity,"[10]; 100 mM Acetate, 100 mM Sucrose, pH 4.7, 72 mg/ml",23.91 cp
same,Viscosity,"[10]; 100 mM Acetate, 100 mM Sucrose, pH 4.7, 77 mg/ml",26.08 cp
same,Viscosity,"[10]; 100 mM Acetate, 100 mM Sucrose, pH 4.7, 80 mg/ml",30.02 cp
same,Viscosity,"[10]; 100 mM Acetate, 100 mM Sucrose, pH 4.7, concentration 60 mg/ml (A280)",17.48 cp
same,Viscosity,"[10]; T = 0, 50 mM Acetate pH 4.7, 60 mg/mL",19.7 cP
same,Viscosity,"[10]; T = 0, 50 mM Acetate pH 4.7, 70 mg/mL",29.2 cP
same,Viscosity,"[10]; T = 0, 50 mM Acetate pH 4.7, 80 mg/mL",43.6 cP
same,Viscosity,"[10]; T = 0, 50 mM Acetate pH 4.7, 100 mg/mL",79.2 cP
same,Viscosity,"[10]; T = 0, 50 mM Acetate pH 4.7, theoretical concentration 50 mg/mL",12.9 cP
same,Viscosity,"[10]; T = 0, 100 mM Acetate pH 4.7, 50 mg/mL",12.9 cP
same,Viscosity,"[10]; T = 0, 100 mM Acetate pH 4.7, 60 mg/mL",20.8 cP
same,Viscosity,"[10]; T = 0, 100 mM Acetate pH 4.7, 70 mg/mL",32.9 cP
same,Viscosity,"[10]; T = 0, 100 mM Acetate pH 4.7, 80 mg/mL",48.7 cP
same,Viscosity,"[10]; T = 0, 100 mM Acetate pH 4.7, 100 mg/mL",87.4 cP
same,Viscosity,"[10]; T = 24 hrs, 50 mM Acetate pH 4.7, 50 mg/mL",12.2 cP
same,Viscosity,"[10]; T = 24 hrs, 50 mM Acetate pH 4.7, 60 mg/mL",19.4 cP
same,Viscosity,"[10]; T = 24 hrs, 50 mM Acetate pH 4.7, 70 mg/mL",28.3 cP
same,Viscosity,"[10]; T = 24 hrs, 100 mM Acetate pH 4.7, 50 mg/mL",12.8 cP
same,Viscosity,"[10]; T = 24 hrs, 100 mM Acetate pH 4.7, 60 mg/mL",20.4 cP
same,Viscosity,"[10]; T = 24 hrs, 100 mM Acetate pH 4.7, 70 mg/mL",32.5 cP
same,Plasma concentration 24 hours following last injection of repeat dosing regimen (Day 33),[11]; 1000 nmol/kg,67.51 µg/mL
same,Plasma concentration 24 hours following single dose (Day 2),[11]; 1000 nmol/kg,51.57 µg/mL
same,Plasma concentration 24 hours following single dose (Day 2),[11]; 3000 nmol/kg,183.33 µg/mL
same,Plasma concentration 24 hours following last injection of repeat dosing regimen (Day 33),[11]; 6000 nmol/kg,493.60 µg/mL
same,degradation by DPPIV (in words),[12],no degradation of OXM was observed
certolizumab pegol [Cimzia],Break Loose Force,[13],6.28 N
same,Glide Force,[13],27.94 N
"PEG30-Fmoc-OXM (HSQGTFTSDYSKYLDSRRAQDFVQWLMNTKRNRNNIA; Oxyntomodulin PEG30 via Fmoc linker; UniProt P01275 53-89, looked up)",Final reduction changes in body weight (on day 33) compared to control (PEG-SH),[3]; [14],5.1%
same,fasting glucose (in words),[3]; [14],significant improvement
same,reduction change in body weight compared to its pair-fed group,"[3]; 6000 nmol/kg sc every four days, insignificant",2.6%
same,terminal plasma lipidic profiles and fructosamine (in words),[3],significant reduction
same,"glucose profile, Day 30 OGTT (in words)",[3],significant improved glucose profile
same,"glucose tolerance, day 2 OGTT (in words)",[3],significantly improved glucose tolerance
